For one test, the target named is HER2 (Homo sapiens (Human), UniProt P04626 23-652). Briefly: phage ELISA, A450 target/A450 IgG1-Fc. The method in brief: (§1)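 The ELISA ratio divides target absorbance by IgG1-Fc absorbance and averages this over all screened wells holding a given clone. Phage came from phagemid colonies picked from panning output and were rescued with VCSM13 helper phage in 96-well format. After coating with 1.3 microg/ml goat anti-human IgG1-Fc antibody, wells were loaded with 5 nM recombinant human target or IgG1-Fc, then with 50 microl phage diluted 5× in ELISA blocking buffer, and bound phage were read at 450 nm using HRP-conjugated anti-M13 antibody.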
For orientation: In an ELISA, binding on a coated surface is turned into a signal by an enzyme label.

Test [1] has as its target T1, recombinant human CD123-Fc (human, UniProt P26951 19-305).
T1 construct: not shown: Fc part of CD123-Fc
T1 sequence: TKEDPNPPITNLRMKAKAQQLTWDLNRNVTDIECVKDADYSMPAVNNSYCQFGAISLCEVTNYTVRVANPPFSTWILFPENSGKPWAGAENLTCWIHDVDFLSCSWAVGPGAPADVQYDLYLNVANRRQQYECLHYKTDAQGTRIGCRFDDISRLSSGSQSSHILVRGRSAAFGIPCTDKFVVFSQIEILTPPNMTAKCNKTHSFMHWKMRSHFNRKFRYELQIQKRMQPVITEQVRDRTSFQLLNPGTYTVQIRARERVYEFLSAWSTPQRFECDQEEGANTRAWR
Briefly: phage ELISA, A450 target/A450 IgG1-Fc. The method in brief: as §1

B1: SEQ ID NO 911 (designed binder)
chain: MGSWHEFRWRLFAIWQRLHALGGSEAELAAFEKEIAAFESELQAYKGKGNPEVEWLRLDAALIRVMLQAYRHN
B1 yielded an ELISA_avg with HER2 of 10 ratio.

B2: SEQ ID NO 920 (designed binder)
chain: MGSWYEFRWRLHAIWLRLGALGGSEAELAAFEKEIAAFESELQAYKGKGNPEVEWLRQDAAQIRYILQAYRHN
In turn, B2 registered an ELISA_avg in the test with HER2 of 7.18 ratio.

B3: SEQ ID NO 730 (designed binder)
chain: MGSWWEFEDRLMAIYDRLYALGGSEAELAAFEKEIAAFESELQAYKGKGNPEVEYLRAEAALIRETLQAYRHN
Turning to B3, the ELISA_avg in test [1] turned out to be 15.3 ratio.

B4: SEQ ID NO 731 (designed binder)
chain: MGSWFEFEDRLYAIEDRLYALGGSEAELAAFEKEIAAFESELQAYKGKGNPEVEYLRWGAATIRDELQAYRHN
Turning to B4, the ELISA_avg in test [1] was determined as 4.7 ratio.

B5: SEQ ID NO 922 (designed binder)
chain: MGSWWGFKVNLAWIKWKLEALGGSEAELAYFELWIANFEHSLQEYKGKGNPEVEALRKEAAAIRDELQAYRHN
In the test with HER2, B5 registered an ELISA_avg of 8.69 ratio.

B6: SEQ ID NO 921 (designed binder)
chain: MGSWHEFLRRLLAIEMRLYALGGSEAELAAFEKEIAAFESELQAYKGKGNPEVEHLRVRAASIRQMLQAYRHN
Turning to B6, the ELISA_avg with HER2 came to 8.15 ratio.

B7: SEQ ID NO 934 (designed binder)
chain: MGSWSEFWFRLHAILYRLQALGGSEAELAAFEKEIAAFESELQAYKGKGNPEVETLRDAAAEIRVALQAYRHN
In the test with HER2, B7 came in with an ELISA_avg of 14.8 ratio.

B8: SEQ ID NO 700 (designed binder)
chain: MGSWNEFYDRLSAIYFRLQALGGSEAELAAFEKEIAAFESELQAYKGKGNPEVEHLRWYAADIRMILQAYRHN
Consider B8, for which, in test [1], the ELISA_avg was 10.6 ratio.

B9: SEQ ID NO 704 (designed binder)
chain: MGSWKEFDNRLYAIEDRLRALGGSEAELAAFEKEIAAFESELQAYKGKGNPEVEHLRWYAADIRMILQAYRHN
Turning to B9, in test [1], the ELISA_avg was determined as 3.9 ratio.

B10: SEQ ID NO 703 (designed binder)
chain: MGSWVEFYDRLHAIYFRLLALGGSEAELAAFEKEIAAFESELQAYKGKGNPEVEDLRWYAADIRLVLQAYRHN
B10: the ELISA_avg in test [1] came out at 4.8 ratio.

B11: SEQ ID NO 702 (designed binder)
chain: MGSWEEFYDRLGAIFARLHALGGSEAELAAFEKEIAAFESELQAYKGKGNPEVEDLRWYAADIRMILQAYRHN
For B11, the ELISA_avg in test [1] came out at 3.9 ratio.

B12: SEQ ID NO 701 (designed binder)
chain: MGSWNEFYDRLSAIYFRLQALGGFEAELAAFEKEIAAFESELQAYKGKGNPEVEHLRWYAADIRMILQAYRHN
As to B12, the ELISA_avg in test [1] came out at 9 ratio.

B13: SEQ ID NO 698 (designed binder)
chain: MGSWYEFYNRLSAIYARLQALGGSEAELAAFEKEIAAFESELQAYKGKGNPEVEDLRWYAADIRYMLQAYRHN
Regarding B13, the ELISA_avg in test [1] was found to be 10.6 ratio.

B14: SEQ ID NO 699 (designed binder)
chain: MGSWYEFYDRLSAIYARLQALGGSEAELAAFEKEIAAFESELQAYKGKGNPEVEDLRWYAADIRYMLQAYRHN
As for B14, the ELISA_avg in test [1] stood at 5.3 ratio.

B15: SEQ ID NO 936 (designed binder)
chain: MGSWVEFWIRLNAIKYRLLALGGSEAELAAFEKEIAAFESELQAYKGKGNPEVEKLRQDAADIRELLQAYRHN
Molecule B15 gave an ELISA_avg with HER2 of 10.6 ratio.

B16: SEQ ID NO 938 (designed binder)
chain: MGSWWEFYLRLRAISYRLQALGGSEAELAAFEKEIAAFESELQAYKGKGNPEVEGLRQDAAEIRKLLQAYRHN
As to B16, the ELISA_avg with HER2 is 5.1 ratio.

B17: SEQ ID NO 937 (designed binder)
chain: MGSWTEFWWRLSAIVYRLNALGGSEAELAAFEKEIAAFESELQAYKGKGNPEVEELRDMAADIRSLLQAYRHN
As to B17, in the test with HER2, the ELISA_avg stood at 5.76 ratio.

B18: SEQ ID NO 926 (designed binder)
chain: MGSWWEFKVRLSAIQYRLYALGGSEAELAAFEKEIAAFESELQAYKGKGNPEVEALREQAALIRTILQAYRHN
B18: in the test with HER2, the ELISA_avg was found to be 5.17 ratio.

B19: SEQ ID NO 935 (designed binder)
chain: MGSWIEFWVRLNAILYRLYALGGSEAELAAFEKEIAAFESELQAYKGKGNPEVEALRDSAAEIRRWLQAYRHN
On to B19, for which the ELISA_avg with HER2 came out at 3.91 ratio.

B20: SEQ ID NO 929 (designed binder)
chain: MGSWWEFKIRLYAIEYRLNALGGSEAELAAFEKEIAAFESELQAYKGKGNPEVEALRAKAAQIRYNLQAYRHN
For the molecule B20, the ELISA_avg with HER2 was 4.49 ratio.

B21: SEQ ID NO 928 (designed binder)
chain: MGSWWEFQVRLRAIQYRLNALGGSEAELAAFEKEIAAFESELQAYKGKGNPEVEYLRGLAAQIRFDLQAYRHN
Consider B21, for which the ELISA_avg in the test with HER2 was determined as 14.4 ratio.

B22: SEQ ID NO 933 (designed binder)
chain: MGSWWEFKVRLRAIEYRLSALGGSEAELAAFEKEIAAFESELQAYKGKGNPEVEELRVLAASIRIHLQAYRHN
In the test with HER2, B22 yielded an ELISA_avg of 10.1 ratio.

B23: SEQ ID NO 927 (designed binder)
chain: MGSWWEFHIRLHAINYRLAALGGSEAELAAFEKEIAAFESELQAYKGKGNPEVEALRELAAKIRGDLQAYRHN
In the test with HER2, B23 came in with an ELISA_avg of 11.9 ratio.

B24: SEQ ID NO 925 (designed binder)
chain: MGSWKTFKIELAGIKLELEALGGSEAELAGFENAIAQFESSLQYYKGKGNPEVEALRKEAAAIRDELQAYRHN
As for B24, the ELISA_avg with HER2 is 4.95 ratio.

B25: SEQ ID NO 736 (designed binder)
chain: MGSWFEFVDRLEAIEMRLFALGGSEAELAAFEKEIAAFESELQAYKGKGNPEVELLRWRAAMIRYDLQAYRHN
With B25, the ELISA_avg in test [1] turned out to be 7.1 ratio.

B26: SEQ ID NO 923 (designed binder)
chain: MGSWVNFKTHLARIKVHLEALGGSEAELALFEHDIANFEQVLQQYKGKGNPEVEALRKEAAAIRDELQAYRHN
The molecule B26 returned an ELISA_avg in the test with HER2 of 7.91 ratio.

B27: SEQ ID NO 924 (designed binder)
chain: MGSWLVFKDELAGIKNYLEALGGSEAELATFEQDIAWFEQWLQNYKGKGNPEVEALRKEAAAIRDELQAYRHN
Turning to B27, the ELISA_avg with HER2 is 3.28 ratio.

B28: SEQ ID NO 939 (designed binder)
chain: MGSWWEFHVRLRAIEYRLEALGGSEAELAAFEKEIAAFESELQAYKGKGNPEVEQLRLIAANIRHLLQAYRHN
The molecule B28 yielded an ELISA_avg with HER2 of 5.48 ratio.

B29: SEQ ID NO 942 (designed binder)
chain: MGSWWEFQVRLAAIEYRLKALGGSEAELAAFEKEIAAFESELQAYKGKGNPEVENLRQLAAHIRSVLQAYRHN
As to B29, the ELISA_avg in the test with HER2 is 6.33 ratio.

B30: SEQ ID NO 943 (designed binder)
chain: MGSWWEFQVRLSAIEYRLTALGGSEAELAAFEKEIAAFESELQAYKGKGNPEVEELRQKAARIRSLLQAYRHN
B30 showed an ELISA_avg in the test with HER2 of 9.61 ratio.

B31: SEQ ID NO 940 (designed binder)
chain: MGSWWEFHVRLKAIEYRLLALGGSEAELAAFEKEIAAFESELQAYKGKGNPEVEDLRYIAANIRQLLQAYRHN
In turn, B31 yielded an ELISA_avg with HER2 of 4.56 ratio.

B32: SEQ ID NO 930 (designed binder)
chain: MGSWFEFNIRLHAIEYRLKALGGSEAELAAFEKEIAAFESELQAYKGKGNPEVEELRNYAASIRKLLQAYRHN
In the test with HER2, B32 gave an ELISA_avg of 7.86 ratio.

B33: SEQ ID NO 931 (designed binder)
chain: MGSWFEFEIRLRAIEYRLSALGGSEAELAAFEKEIAAFESELQAYKGKGNPEVEKLRELAAEIRYALQAYRHN
Consider B33, for which the ELISA_avg in the test with HER2 worked out at 7.75 ratio.

B34: SEQ ID NO 944 (designed binder)
chain: MGSWWEFNIRLHAIDYRLKALGGSEAELAAFEKEIAAFESELQAYKGKGNPEVELLREKAAQIRAQLQAYRHN
In the test with HER2, B34 yielded an ELISA_avg of 9.75 ratio.

B35: SEQ ID NO 932 (designed binder)
chain: MGSWFEFKIRLYAIQYRLSALGGSEAELAAFEKEIAAFESELQAYKGKGNPEVEELRNLAAEIRHSLQAYRHN
With B35, the ELISA_avg in the test with HER2 worked out at 13.1 ratio.

B36: SEQ ID NO 945 (designed binder)
chain: MGSWWEFRVRLEAIDYRLKALGGSEAELAAFEKEIAAFESELQAYKGKGNPEVEYLRMKAATIRAILQAYRHN
Consider B36, for which the ELISA_avg with HER2 stood at 6.82 ratio.

B37: SEQ ID NO 946 (designed binder)
chain: MGSWYEFDIRLEAIKYRLSALGGSEAELAAFEKEIAAFESELQAYKGKGNPEVEYLRKKAAVIRSMLQAYRHN
As to B37, the ELISA_avg with HER2 is 5.35 ratio.

B38: SEQ ID NO 948 (designed binder)
chain: MGSWWEFNVRLQAIKYRLSALGGSEAELAAFEKEIAAFESELQAYKGKGNPEVEDLRKTAAHIRWQLQAYRHN
In the test with HER2, B38 gave an ELISA_avg of 5.23 ratio.

B39: SEQ ID NO 947 (designed binder)
chain: MGSWWEFRIRLEAIWYRLHALGGSEAELAAFEKEIAAFESELQAYKGKGNPEVEDLRIFAANIRSKLQAYRHN
In turn, B39 registered an ELISA_avg with HER2 of 8.04 ratio.

Source of the values: patent US20230125550A1 (ARCELLX, published 2023).
